Entries after “also recorded” stand apart in the source; their conditions may differ. No end group written: not given here.

Assay [1] relates to breast cancer xenograft. The conditions noted are these: mouse xenograft models of breast cancer; administration of calcitonin; cited from earlier work.
Assay [2] has as its system T47D. The note with it: cancer cell lines such as T47D; cited from earlier work.
Assay [3] concerns the target human calcitonin receptor, endogenous (GBM tissue, A172 glioblastoma cell line) (human) (UniProt P30988). Description: cell-based or functional assay. The conditions noted are these: scale: log EC50.
The target of assay [4] is T1, CTR (Homo sapiens, UniProt P30988).
T1 construct: cMyc; expressed in transfected cells
T1 sequence (P30988 25-474): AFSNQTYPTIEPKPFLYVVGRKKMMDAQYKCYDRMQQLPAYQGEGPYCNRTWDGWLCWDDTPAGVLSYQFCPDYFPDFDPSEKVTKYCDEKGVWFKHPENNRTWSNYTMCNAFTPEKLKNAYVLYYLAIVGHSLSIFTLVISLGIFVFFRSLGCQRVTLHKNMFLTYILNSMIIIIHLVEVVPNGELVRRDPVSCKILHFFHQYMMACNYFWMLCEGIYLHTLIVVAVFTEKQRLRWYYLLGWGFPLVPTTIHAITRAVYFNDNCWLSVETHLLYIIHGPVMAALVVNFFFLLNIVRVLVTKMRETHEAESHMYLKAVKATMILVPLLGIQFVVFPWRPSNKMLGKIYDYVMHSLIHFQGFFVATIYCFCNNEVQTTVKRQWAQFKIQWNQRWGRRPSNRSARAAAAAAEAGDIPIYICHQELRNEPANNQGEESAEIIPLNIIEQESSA
Nature of the assay: Inhibition of phosphorylation of ERK1/2 in GBM cell line A172. Format: cell-based. The conditions noted are these: 10^−6M sCT (8-32). From the text: FIG. 6. […] (C) is an immunoblot of a crude membrane preparation from the cell line A172 and probed with the anti-CTR antibody MCA2191.
(§1) The glioblastoma cell line A172 was maintained in DMEM/10% FBS.
FIG. 6 illustrates the concentration response curves and immunoblot for the GBM cell line A172.

Assay [5] concerns the target T1, CTR. Nature of the assay: Stimulation of cAMP production (adenylyl cyclase activity) in GBM cell line A172. Format: cell-based. The note with it: 10^−6M sCT (8-32).
Text: FIG. 6. […]. (C) is an immunoblot of a crude membrane preparation from the cell line A172 and probed with the anti-CTR antibody MCA2191.
as §1
FIG. 6 illustrates the concentration response curves and immunoblot for the GBM cell line A172. […]. The stimulation was inhibited by the antagonist 10^−6M sCT (8-32). In immunoblots (C) of whole cell lysates of A172 probed with the anti-CTR antibody MCA2191, there is a minor band that runs with a mobility of ˜70 kD and a major band at 52 kD.

Consider “calcitonin (CGNLSTCMLGTYTQDFNKFHTFPQTAIGVGAP; ends and bridges not checked; cysteine pairing not given here; UniProt P01258 85-116, looked up) [calcitonin (CT), calcitonin receptor agonist]”, for which the tumor volume entry in assay [1] is given as “significantly reduced”. Besides, the cell proliferation entry in assay [2] is on record as “inhibits cell proliferation”.

For the substance “human CT (from UniProt P01258 85-116) (ligand)”, in assay [3], the log EC50, inhibition of phosphorylation of ERK1/2 in the GBM cell line A172 was -10.5 and the log EC50, stimulation of adenylyl cyclase activity (cAMP production) in the GBM cell line A172 was -9.9.

For “sCT (8-32): antagonist (also called inverse agonist) of CTR (VLGKLSQELHKLQTYPRTNTGSGTP)”, in assay [4], the “effect on the hCT inhibition of ERK1/2 phosphorylation” value is listed as “inhibited; also recorded: antagonised”. Further, the “effect on the hCT stimulation of adenylyl cyclase activity” value in assay [5] is reported as “inhibited”.

Values taken from patent US20130230453A1, “DIAGNOSIS AND TREATMENT OF BRAIN TUMORS” (Welcome Receptor Antibodies Pty Ltd, priority 2010, published 2013).
